Experimental data from PMC10132808, “Stimulation of the catalytic activity of the tyrosine kinase Btk by the adaptor protein Grb2” (eLife, 2023).

Molecular target: T1, Grb2 labeled with Alexa Fluor 647 (UniProt P62993 1-217, Alexa Fluor 647 C2 maleimide on a surface cysteine (at most one per molecule; about 17% labeling overall))
T1 construct: The labeled cysteine is not identified; Only about 17% of the preparation carries the dye; also called Grb2-AlexaFluor647; source: E. coli BL21(DE3), purified (HisTrap, TEV cleavage, gel filtration), labeled by maleimide coupling; not shown: His6, N-terminal, cleaved
T1 sequence (P62993 whole entry): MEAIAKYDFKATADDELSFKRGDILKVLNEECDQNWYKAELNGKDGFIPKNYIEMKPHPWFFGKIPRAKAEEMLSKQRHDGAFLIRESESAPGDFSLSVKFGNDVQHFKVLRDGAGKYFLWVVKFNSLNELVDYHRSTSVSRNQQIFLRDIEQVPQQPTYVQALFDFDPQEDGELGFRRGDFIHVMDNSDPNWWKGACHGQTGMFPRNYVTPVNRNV
Test: TIRF microscopy of recruitment to supported-lipid bilayers; N-terminally His-tagged Btk constructs tethered to bilayers with 4% DGS-NTA(Ni), 96% DOPC, washed after equilibration; Grb2-Alexa Fluor 647 added; fluorescence at the membrane over time
Conditions: both partners purified

B1: His-tagged Btk proline-rich linker (domain or fragment, human, UniProt Q06187 171-214, looked up)
chain: RNGSLKPGSSHRKTKKPLPPTPEEDQILKKPLPPEPAAAPVSTS
notes: Btk, human, residues 171-214 (proline-rich linker between the PH-TH module and the SH3 domain); A SUMO module may also be kept, because the protease step was left out; also called the isolated proline-rich linker; source: E. coli BL21(DE3), purified (HisTrap, gel filtration; protease step left out); not shown: His6, N-terminal, kept
binding result: binds
